# Legend:
# [1] = biological target: T1, ThrRS (threonyl-tRNA synthetase) (Escherichia coli, UniProt P0A8M3 SEQ:13-654); experiment: EMSA; 50 mM KCl, 5 mM MgCl2, 0-40 uM protein; supershift suggests dimer; weaker than Domain 234; conditions: tags: His tag (pQE-30); label: 32P
# Description: (§1) The reaction of ThrRS with Domain 234 or Domain 2 was performed as follows under conditions involving final concentrations of 20 nM RNA, 25 mM Hepes-KOH, 50 mM KCl, 5 mM MgCl₂, 1 mM DTT, 5% glycerol, and 0 to 40 μM protein. First, […] ³²P-labeled RNA was denatured at 80° C. for 5 minutes and then supplemented with 4 μL of 5×binding buffer ([…], 250 mM KCl, 25 mM MgCl₂, 5 mM DTT, 25% glycerol) and ultrapure water. Then, the solution was mixed with the protein to adjust the whole amount to 20 μL. The reaction solution was left on ice for 60 minutes. 2 μL of dye (0.25% BPB, 0.25% XC, 30% glycerol) was added thereto, and the mixture was electrophoresed on a 12% nondenaturing polyacrylamide gel at 4° C. for 3 to 4 hours. Then, the gel was dried for 1 hour using a gel drier and analyzed for its radiation dose intensity using Bio-Imaging Analyzer (BAS2500; FUJIFILM) (FIGS. 6 and 7).
# (§2) As a result, both ThrRS Domain 234 and ThrRS Domain 2 were confirmed to increase the band in a ThrRS protein concentration-dependent manner. […] As is also evident from the degree of band smear, Domain 234 has stronger binding than only Domain 2.
# [2] = biological target: T2, L7Ae (Archaeoglobus fulgidus, UniProt O29494 SEQ:21-139); experiment: EMSA; 150 mM KCl, 1.5 mM MgCl2, tRNA competitor, 0-500 nM protein, on ice; conditions: tags: His tag (pET-28b+, NdeI/XhoI); label: 32P
# Description: (§3) The reaction of L7Ae with Box C/D, Box C/D mini, or Box C/D minimut was performed at a final concentration of 10 nM, 25 nM, or 25 nM RNA, respectively. The reaction was performed as follows under conditions involving 10 nM or 25 nM RNA, 20 mM Hepes-KOH, 150 mM KCl, 1.5 mM MgCl₂, 2 mM DTT, 0.001 U/mL tRNA, 3% glycerol, and 0 to 500 nM protein. First, 1 μL of ³²P-labeled RNA was denatured at 80° C. for 5 minutes and then supplemented with 4 μL of 5×binding buffer (100 mM Hepes-KOH (pH 7.5), 750 mM KCl, 7.5 mM MgCl₂, 10 mM DTT, 0.005 U/ρL tRNA, 15% glycerol) and ultrapure water. Then, the solution was mixed with the protein to adjust the whole amount to 20 μL. The reaction solution was left on ice for 60 minutes. 2 μL of dye (0.25% BPB, 0.25% XC, 30% glycerol) was added thereto, and the mixture was electrophoresed on a 8% nondenaturing polyacrylamide gel at 4° C. for 3 to 4 hours. Then, the gel was dried for 1 hour using a gel drier and analyzed for its radiation dose intensity using Bio-Imaging Analyzer (BAS2500; FUJIFILM) (FIGS. 4 and 5).
# (§4) As a result, both Box C/D and Box C/D mini were confirmed to increase the band in an L7Ae protein concentration-dependent manner.
# [3] = biological target: T1, ThrRS (threonyl-tRNA synthetase); experiment: EMSA; 50 mM KCl, 5 mM MgCl2, 0-40 uM protein; stronger than Domain 2; conditions: tags: His tag (pQE-30); label: 32P
# Description: as §1, §2
# [4] = biological target: T2, L7Ae; experiment: EMSA; no band increase at 0-500 nM protein; conditions: tags: His tag (pET-28b+, NdeI/XhoI); label: 32P
# Description: as §3, §4
# [5] = biological target: T2, L7Ae; experiment: EMSA; 150 mM KCl, 1.5 mM MgCl2, tRNA competitor, 0-500 nM protein, on ice; conditions: tags: His tag (pET-28b+, NdeI/XhoI); label: 32P; remark: listed apart in the source
# Description: as §3
# T2 sequence (O29494 whole entry): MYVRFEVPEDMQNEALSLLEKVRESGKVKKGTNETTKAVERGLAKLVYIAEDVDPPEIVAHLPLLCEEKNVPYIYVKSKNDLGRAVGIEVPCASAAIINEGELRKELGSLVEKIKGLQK
# T1 sequence (P0A8M3 whole entry, the tested form may be a part): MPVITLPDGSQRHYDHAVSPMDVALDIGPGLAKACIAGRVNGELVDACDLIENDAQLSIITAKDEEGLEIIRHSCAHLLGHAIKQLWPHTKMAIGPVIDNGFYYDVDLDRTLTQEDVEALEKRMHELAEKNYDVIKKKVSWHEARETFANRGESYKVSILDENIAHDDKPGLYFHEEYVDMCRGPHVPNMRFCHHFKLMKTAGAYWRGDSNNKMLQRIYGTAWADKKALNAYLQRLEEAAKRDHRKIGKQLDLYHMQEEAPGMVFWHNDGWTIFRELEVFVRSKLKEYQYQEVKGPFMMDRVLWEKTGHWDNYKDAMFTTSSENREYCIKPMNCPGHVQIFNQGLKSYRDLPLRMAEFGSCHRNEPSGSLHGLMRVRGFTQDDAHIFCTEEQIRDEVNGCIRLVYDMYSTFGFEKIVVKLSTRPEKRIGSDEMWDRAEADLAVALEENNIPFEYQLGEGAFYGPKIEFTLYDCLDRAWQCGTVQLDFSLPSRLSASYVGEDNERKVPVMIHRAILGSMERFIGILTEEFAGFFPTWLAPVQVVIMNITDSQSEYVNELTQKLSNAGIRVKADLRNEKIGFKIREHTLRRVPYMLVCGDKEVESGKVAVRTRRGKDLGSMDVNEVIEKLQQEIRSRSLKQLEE
binder,measurement,setting,value
GGCGUAUGUGAUCUUUCGUGUGGGUCACCACUGCGCC (ssRNA) [ThrRS Domain 2],binding result,[1],binds
GGGCGUGAUGCGAAAGCUGACCC (ssRNA) [Box C/D mini],binding result,[2],binds
ThrRS Domain 234 (ssRNA) RNA: GGAUUGCGAACCAAUUUAGCAUUUGUUGGCUGCAAAUGGUUUCGCAAUGAACUGUUAAUAAACAAAUUUUUCUUUGUAUGUGAUCUUUCGUGUGGGUCACCACUGCAAA,binding result,[3],binds
GGGCGUCAUGCGAAAGCUGCCCC (ssRNA) [Box C/D minimut],binding result,[4],no binding
Box C/D (ssRNA) RNA: GGCCAGAGUGGGCGUGAUGCAUGUCUAGGAAACUAGACAUGCUGACCCACUCUGGCC,binding result,[5],binds

# From US20110040077, “Protein-Responsive Translational Regulatory System Using RNA-Protein Interacting Motif” (JAPAN SCIENCE AND TECHNOLOGY AGENCY, published 2011)
